According to article PMC12335590:

Target: mouse platelet glycoprotein Ibα (mouse (endogenous in platelets)) (UniProt O35930)
Chain of UniProt O35930 (O35930 17-734): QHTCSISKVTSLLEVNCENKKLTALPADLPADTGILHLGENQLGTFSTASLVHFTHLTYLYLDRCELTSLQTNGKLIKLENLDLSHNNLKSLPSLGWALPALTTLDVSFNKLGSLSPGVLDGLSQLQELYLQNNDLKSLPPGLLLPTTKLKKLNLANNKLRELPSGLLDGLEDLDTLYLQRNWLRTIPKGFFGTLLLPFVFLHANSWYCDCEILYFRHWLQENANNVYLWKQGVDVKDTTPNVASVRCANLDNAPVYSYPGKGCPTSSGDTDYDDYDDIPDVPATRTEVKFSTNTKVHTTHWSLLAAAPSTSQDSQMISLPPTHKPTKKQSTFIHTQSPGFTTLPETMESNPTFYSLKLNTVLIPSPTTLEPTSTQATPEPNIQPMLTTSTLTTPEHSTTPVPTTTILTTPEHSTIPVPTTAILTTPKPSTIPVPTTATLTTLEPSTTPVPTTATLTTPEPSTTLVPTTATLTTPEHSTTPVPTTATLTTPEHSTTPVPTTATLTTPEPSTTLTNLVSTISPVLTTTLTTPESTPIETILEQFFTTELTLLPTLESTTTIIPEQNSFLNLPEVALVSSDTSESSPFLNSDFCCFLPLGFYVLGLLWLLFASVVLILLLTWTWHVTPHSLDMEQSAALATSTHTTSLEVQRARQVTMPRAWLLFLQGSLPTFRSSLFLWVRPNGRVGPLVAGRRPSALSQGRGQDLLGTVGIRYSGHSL

A translocation (rolling) velocity of Mical1+/+ platelets on immobilised recombinant mouse VWF at 1500 s-1 after αIIbβ3 blockade of 1.41 μm/s was found for “recombinant mouse von Willebrand factor, Q8CIZ8 764-2813” in this work.
